Like-named read-outs stand apart in the source and are kept apart here.
Key:
[1] = Thermofluor (TF) assay of STX binding; settings: 1.1 μM Sxph, 0-20 μM STX; ΔTm at 20 μM toxin
[2] = assay type: binding; settings: for Kd: FP; for ΔΔG: ΔΔG = RT ln(Kd mutant or XSxph/Kd RcSxph), T = 298K, FP with F-STX
[3] = system: Phyllobates terribilis NaV1.4 (PtNaV1.4); assay: Two-electrode voltage clamp: Sxph rescue of PtNaV1.4 from STX block in Xenopus oocytes; assay type: cell-based; settings: [Sxph]:[STX] ratio, 100 nM STX, PtNaV1.4 in Xenopus oocytes
[4] = assay type: binding; settings: ITC, STX, 25° C.
Description: . […] In almost all mutants, binding affinity loss correlated with a reduction in enthalpy, consistent with a loss of interactions (Table S2). […]. […] Together, these three assays (FIGS. 1E and G) provide a robust and versatile suite of options for characterizing STX:Sxph interactions.
ITC measurements were performed at 25° C. using a MicroCal PEAQ-ITC calorimeter (Malvern Panalytical). […]. This STX stock was diluted with the SEC buffer to prepare 100 μM or 300 μM STX solutions having a final buffer composition of 135 mM NaCl, 9 mM HEPES, pH 7.4. […]. The calorimetric experiment settings were: reference power, 5 μcal/s; spacing between injections, 150 s; stir speed 750 rpm; and feedback mode, high. Data were analyzed using MicroCal PEAQ-ITC Analysis Software (Malvern Panalytical) using a single binding site model. The heat of dilution from titrations of 100 μM STX in 135 mM NaCl, 9 mM HEPES, pH 7.4 into 135 mM NaCl, 9 mM HEPES, pH 7.4 was subtracted from each experiment to correct the baseline.

[5] = 1 nM F-STX, 25° C., errors S.D.

Row | Molecule | ΔTm (STX-induced change of melting temperature) [1] | Kd [2, 5] | ΔΔG [2] | Effective Rescue Ratio50 (ERR50) [3] | Kd [4] | ΔG [4] | ΔH [4] | ΔS (cal mol^−1 K^−1) [4] | Kd ([2]; F-STX)
1 | I782A: RcSxph STX binding pocket mutant I782A (protein) MAPTFQTALFFTIISLSFAAPNAKQVRWCAISDLEQKKCNDLVGSCNVPDITLVCVLRSSTEDCMTAIKDGQADAMFLDSGEVYEASKDPYNLKPIIAEPYSSNRDLQKCLKERQQALAKKMIGHYIPQCDEKGNYQPQQCHGSTGHCWCVNAMGEKISGTNTPPGQTRATCERHELPKCLKERQVALGGDEKVLGRFVPQCDEKGNYEPQQFHGSTGYSWCVNAIGEEIAGTKTPPGKIPATCQKHDLVTTCHYAVAMVKKSSAFQFNQLKGKRSCHSGVSKTDGWKALVTVLVEKKLLSWDGPAKESIQRAMSKFFSVSCIPGATQTNLCKQCKGEEGKNCKNSHDEPYYGNYGAFRCLKEDMGDVAFLRSTALSDEHSEVYELLCPDNTRKPLNKYKECNLGTVPAGTVVTRKISDKTEDINNFLMEAQKRQCKLFSSAHGKDLMFDDSTLQLALLSSEVDAFLYLGVKLFHAMKALTGDAHLPSKNKVRWCTINKLEKMKCDDWSAVSGGAIACTEASCPKGCVKQILKGEADAVKLEVQYMYEALMCGLLPAVEEYHNKDDFGPCKTPGSPYTDFGTLRAVALVKKSNKDINWNNIKGKKSCHTGVGDIAGWVIPVSLIRRQNDNSDIDSFFGESCAPGSDTKSNLCKLCIGDPKNSAANTKCSLSDKEAYYGNQGAFRCLVEKGDVAFVPHTVVFENTDGKNPAVWAKNLKSEDFELLCLDGSRAPVSNYKSCKLSGIPPPAIVTREESISDVVRIVANQQSLYGRKGFEKDMFQLFSSNKGNNLLFNDNTQCLATFDRQPKDIMEDYFGKPYYTTVYGASRSAMSSELISACTIKHC | DTm increases relative to wild-type | 3 ± 0.8 nM | -0.53 kcal/mol | 0.87±0.02 | – | – | – | – | –
2 | Y558I: RcSxph STX binding pocket mutant Y558I (protein) MAPTFQTALFFTIISLSFAAPNAKQVRWCAISDLEQKKCNDLVGSCNVPDITLVCVLRSSTEDCMTAIKDGQADAMFLDSGEVYEASKDPYNLKPIIAEPYSSNRDLQKCLKERQQALAKKMIGHYIPQCDEKGNYQPQQCHGSTGHCWCVNAMGEKISGTNTPPGQTRATCERHELPKCLKERQVALGGDEKVLGRFVPQCDEKGNYEPQQFHGSTGYSWCVNAIGEEIAGTKTPPGKIPATCQKHDLVTTCHYAVAMVKKSSAFQFNQLKGKRSCHSGVSKTDGWKALVTVLVEKKLLSWDGPAKESIQRAMSKFFSVSCIPGATQTNLCKQCKGEEGKNCKNSHDEPYYGNYGAFRCLKEDMGDVAFLRSTALSDEHSEVYELLCPDNTRKPLNKYKECNLGTVPAGTVVTRKISDKTEDINNFLMEAQKRQCKLFSSAHGKDLMFDDSTLQLALLSSEVDAFLYLGVKLFHAMKALTGDAHLPSKNKVRWCTINKLEKMKCDDWSAVSGGAIACTEASCPKGCVKQILKGEADAVKLEVQYMYEALMCGLLPAVEEYHNKDDFGPCKTPGSPITDFGTLRAVALVKKSNKDINWNNIKGKKSCHTGVGDIAGWVIPVSLIRRQNDNSDIDSFFGESCAPGSDTKSNLCKLCIGDPKNSAANTKCSLSDKEAYYGNQGAFRCLVEKGDVAFVPHTVVFENTDGKNPAVWAKNLKSEDFELLCLDGSRAPVSNYKSCKLSGIPPPAIVTREESISDVVRIVANQQSLYGRKGFEKDMFQLFSSNKGNNLLFNDNTQCLITFDRQPKDIMEDYFGKPYYTTVYGASRSAMSSELISACTIKHC | – | 1.2 ± 0.2 nM | -1.07 kcal/mol | 0.81±0.01 | 1.1 ± 0.5 nM | -12.2 ± 0.3 kcal/mol | -15.5 ± 0.3 kcal/mol | −10.5 ± 0.6 cal mol^−1 K^−1 | –
3 | P727A: RcSxph STX binding pocket mutant P727A (protein) MAPTFQTALFFTIISLSFAAPNAKQVRWCAISDLEQKKCNDLVGSCNVPDITLVCVLRSSTEDCMTAIKDGQADAMFLDSGEVYEASKDPYNLKPIIAEPYSSNRDLQKCLKERQQALAKKMIGHYIPQCDEKGNYQPQQCHGSTGHCWCVNAMGEKISGTNTPPGQTRATCERHELPKCLKERQVALGGDEKVLGRFVPQCDEKGNYEPQQFHGSTGYSWCVNAIGEEIAGTKTPPGKIPATCQKHDLVTTCHYAVAMVKKSSAFQFNQLKGKRSCHSGVSKTDGWKALVTVLVEKKLLSWDGPAKESIQRAMSKFFSVSCIPGATQTNLCKQCKGEEGKNCKNSHDEPYYGNYGAFRCLKEDMGDVAFLRSTALSDEHSEVYELLCPDNTRKPLNKYKECNLGTVPAGTVVTRKISDKTEDINNFLMEAQKRQCKLFSSAHGKDLMFDDSTLQLALLSSEVDAFLYLGVKLFHAMKALTGDAHLPSKNKVRWCTINKLEKMKCDDWSAVSGGAIACTEASCPKGCVKQILKGEADAVKLEVQYMYEALMCGLLPAVEEYHNKDDFGPCKTPGSPYTDFGTLRAVALVKKSNKDINWNNIKGKKSCHTGVGDIAGWVIPVSLIRRQNDNSDIDSFFGESCAPGSDTKSNLCKLCIGDPKNSAANTKCSLSDKEAYYGNQGAFRCLVEKGDVAFVPHTVVFENTDGKNPAVWAKNLKSEDFELLCLDGSRAPVSNYKSCKLSGIPAPAIVTREESISDVVRIVANQQSLYGRKGFEKDMFQLFSSNKGNNLLFNDNTQCLITFDRQPKDIMEDYFGKPYYTTVYGASRSAMSSELISACTIKHC | – | 56.9 ± 12.1 nM | 1.21 kcal/mol | > 4 | 31.3 ± 11.6 nM | -10.3 ± 0.2 kcal/mol | -11.5 ± 0.0 kcal/mol | −4.2 ± 0.9 cal mol^−1 K^−1 | –
4 | E540A: RcSxph STX binding pocket mutant E540A (protein) MAPTFQTALFFTIISLSFAAPNAKQVRWCAISDLEQKKCNDLVGSCNVPDITLVCVLRSSTEDCMTAIKDGQADAMFLDSGEVYEASKDPYNLKPIIAEPYSSNRDLQKCLKERQQALAKKMIGHYIPQCDEKGNYQPQQCHGSTGHCWCVNAMGEKISGTNTPPGQTRATCERHELPKCLKERQVALGGDEKVLGRFVPQCDEKGNYEPQQFHGSTGYSWCVNAIGEEIAGTKTPPGKIPATCQKHDLVTTCHYAVAMVKKSSAFQFNQLKGKRSCHSGVSKTDGWKALVTVLVEKKLLSWDGPAKESIQRAMSKFFSVSCIPGATQTNLCKQCKGEEGKNCKNSHDEPYYGNYGAFRCLKEDMGDVAFLRSTALSDEHSEVYELLCPDNTRKPLNKYKECNLGTVPAGTVVTRKISDKTEDINNFLMEAQKRQCKLFSSAHGKDLMFDDSTLQLALLSSEVDAFLYLGVKLFHAMKALTGDAHLPSKNKVRWCTINKLEKMKCDDWSAVSGGAIACTEASCPKGCVKQILKGEADAVKLEVQYMYEALMCGLLPAVAEYHNKDDFGPCKTPGSPYTDFGTLRAVALVKKSNKDINWNNIKGKKSCHTGVGDIAGWVIPVSLIRRQNDNSDIDSFFGESCAPGSDTKSNLCKLCIGDPKNSAANTKCSLSDKEAYYGNQGAFRCLVEKGDVAFVPHTVVFENTDGKNPAVWAKNLKSEDFELLCLDGSRAPVSNYKSCKLSGIPPPAIVTREESISDVVRIVANQQSLYGRKGFEKDMFQLFSSNKGNNLLFNDNTQCLITFDRQPKDIMEDYFGKPYYTTVYGASRSAMSSELISACTIKHC | complete loss of the thermal shift | 15300 ± 4130 nM | 4.52 kcal/mol | eliminated | – | – | – | – | 15300 nM
